According to patent US20170022281A1 (AbbVie / Abbott, published 2017):

Key:
[1] = molecular target: cyno PRLR on Baf3-cyPRLR cells (cyno); experiment: cell-based or functional assay
human PRLR on cells [2] = molecular target: T1, human PRLR on cells (human, UniProt P16471 25-622); experiment: cell-based or functional assay
T1 sequence: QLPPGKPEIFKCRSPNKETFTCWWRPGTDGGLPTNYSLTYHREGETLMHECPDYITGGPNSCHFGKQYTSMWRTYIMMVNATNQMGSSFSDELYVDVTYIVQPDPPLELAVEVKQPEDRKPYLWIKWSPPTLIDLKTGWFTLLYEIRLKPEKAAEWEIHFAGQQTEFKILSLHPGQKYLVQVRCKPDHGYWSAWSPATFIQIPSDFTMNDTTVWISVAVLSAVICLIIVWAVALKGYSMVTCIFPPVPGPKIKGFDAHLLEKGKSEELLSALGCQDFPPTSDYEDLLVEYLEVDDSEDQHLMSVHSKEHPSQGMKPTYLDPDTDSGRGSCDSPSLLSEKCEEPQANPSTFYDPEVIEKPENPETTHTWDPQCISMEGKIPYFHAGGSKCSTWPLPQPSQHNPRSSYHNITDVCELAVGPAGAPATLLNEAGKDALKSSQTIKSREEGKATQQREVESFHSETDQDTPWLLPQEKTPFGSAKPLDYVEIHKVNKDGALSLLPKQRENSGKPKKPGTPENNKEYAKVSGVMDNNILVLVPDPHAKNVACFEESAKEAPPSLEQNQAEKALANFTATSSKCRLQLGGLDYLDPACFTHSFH

[3] = molecular target: T2, murine PRLR (Biacore antigen) (murine, UniProt Q08501 20-229, limits assumed); experiment: SPR Biacore
T2 construct: also called muPRLR
T2 sequence (looked up): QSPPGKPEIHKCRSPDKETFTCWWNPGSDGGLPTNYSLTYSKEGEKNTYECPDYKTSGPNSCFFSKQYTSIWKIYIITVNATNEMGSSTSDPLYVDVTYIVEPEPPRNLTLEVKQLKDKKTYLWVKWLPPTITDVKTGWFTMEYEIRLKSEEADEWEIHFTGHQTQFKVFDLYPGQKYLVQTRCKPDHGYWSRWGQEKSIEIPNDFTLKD
Summary of the method: (§1)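 Association rate, dissociation rate and dissociation constant were measured by surface plasmon resonance on a Biacore instrument. PRLR antigen was tested at 600 nM, 66.67 nM and 7.41 nM, a 3-point, 9-fold dilution series. Constants came from a 1:1 binding model fit (local Rmax, mass-transport term included) in Biacore T200 Evaluation Software.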

[4] = molecular target: T3, human PRLR (Biacore antigen) (human, UniProt P16471 25-234, limits assumed); experiment: SPR Biacore
T3 construct: The construct injected over captured antibody is not described (a soluble form is likely); also called huPRLR
T3 sequence: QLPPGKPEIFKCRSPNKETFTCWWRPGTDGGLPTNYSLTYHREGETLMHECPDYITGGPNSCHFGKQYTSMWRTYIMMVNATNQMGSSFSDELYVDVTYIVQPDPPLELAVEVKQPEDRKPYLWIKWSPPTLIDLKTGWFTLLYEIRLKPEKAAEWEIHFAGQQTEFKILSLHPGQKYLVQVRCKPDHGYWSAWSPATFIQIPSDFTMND
Summary of the method: as §1

[5] = molecular target: T4, cyno PRLR (Biacore antigen) (cyno, UniProt A0A2K5WXK1 25-234); experiment: SPR Biacore
T4 construct: also called cyPRLR
T4 sequence: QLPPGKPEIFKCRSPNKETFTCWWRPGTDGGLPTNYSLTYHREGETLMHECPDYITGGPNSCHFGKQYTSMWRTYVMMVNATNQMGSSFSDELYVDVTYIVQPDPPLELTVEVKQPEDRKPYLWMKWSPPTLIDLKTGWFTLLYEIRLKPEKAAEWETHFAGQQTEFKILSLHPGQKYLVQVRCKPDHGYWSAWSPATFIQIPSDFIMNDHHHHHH
Summary of the method: as §1

[6] = molecular target: T5, rat PRLR ECD-Fc fusion protein (rat, UniProt P05710 20-229); experiment: ELISA on ECD
T5 construct: extracellular domain; not shown: Fc region (captured by goat anti-human Fc)
T5 sequence (looked up): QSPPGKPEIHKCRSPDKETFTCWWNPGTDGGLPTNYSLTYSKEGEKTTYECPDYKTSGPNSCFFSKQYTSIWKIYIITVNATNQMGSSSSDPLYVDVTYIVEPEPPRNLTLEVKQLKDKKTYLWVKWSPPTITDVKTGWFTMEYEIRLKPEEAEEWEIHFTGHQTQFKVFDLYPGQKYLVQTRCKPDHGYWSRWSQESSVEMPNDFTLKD
Summary of the method: (§2)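 EC50 values derive from fitted binding curves of antibody serial dilutions (1 h) on captured PRLR. Detection used an HRP-conjugated secondary (1 h), TMB development for 3–5 min, an H₂SO₄ stop and a 450 nm read, with all steps in Tween/PBS pH 7.4 buffer.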

[7] = molecular target: T6, human PRLR ECD-Fc fusion protein (human, UniProt P16471 25-233); experiment: ELISA on ECD
T6 construct: not shown: Fc region (captured by goat anti-human Fc)
T6 sequence: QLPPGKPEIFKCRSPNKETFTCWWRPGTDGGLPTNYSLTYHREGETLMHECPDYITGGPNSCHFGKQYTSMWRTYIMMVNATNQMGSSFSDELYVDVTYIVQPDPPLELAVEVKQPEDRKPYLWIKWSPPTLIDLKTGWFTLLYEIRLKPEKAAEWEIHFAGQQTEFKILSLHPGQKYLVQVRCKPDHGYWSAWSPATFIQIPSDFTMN
Summary of the method: as §2

[8] = molecular target: T7, cyno PRLR ECD-his6 protein (cyno); experiment: ELISA on ECD
T7 chain: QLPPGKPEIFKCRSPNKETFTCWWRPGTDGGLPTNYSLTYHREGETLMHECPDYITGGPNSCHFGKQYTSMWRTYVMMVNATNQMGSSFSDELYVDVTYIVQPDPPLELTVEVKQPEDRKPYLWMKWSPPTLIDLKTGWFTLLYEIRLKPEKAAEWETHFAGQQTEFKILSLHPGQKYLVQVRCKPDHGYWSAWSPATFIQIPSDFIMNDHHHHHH
Summary of the method: as §2

[9] = molecular target: T8, mouse PRLR ECD-Fc fusion protein (mouse, UniProt Q08501 20-229); experiment: ELISA on ECD
T8 construct: extracellular domain; not shown: Fc region (captured by goat anti-human Fc)
T8 sequence (looked up): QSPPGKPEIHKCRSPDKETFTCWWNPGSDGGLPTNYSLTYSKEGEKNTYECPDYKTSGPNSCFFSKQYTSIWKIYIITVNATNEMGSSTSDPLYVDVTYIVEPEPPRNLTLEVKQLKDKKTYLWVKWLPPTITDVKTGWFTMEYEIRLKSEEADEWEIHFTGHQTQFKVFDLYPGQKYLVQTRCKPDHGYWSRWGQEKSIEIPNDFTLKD
Summary of the method: as §2

[10] = molecular target: T9, rat PRLR on Nb2-11 rat lymphoma cells (rat, UniProt P05710 20-610); experiment: cell-based or functional assay
T9 sequence (looked up): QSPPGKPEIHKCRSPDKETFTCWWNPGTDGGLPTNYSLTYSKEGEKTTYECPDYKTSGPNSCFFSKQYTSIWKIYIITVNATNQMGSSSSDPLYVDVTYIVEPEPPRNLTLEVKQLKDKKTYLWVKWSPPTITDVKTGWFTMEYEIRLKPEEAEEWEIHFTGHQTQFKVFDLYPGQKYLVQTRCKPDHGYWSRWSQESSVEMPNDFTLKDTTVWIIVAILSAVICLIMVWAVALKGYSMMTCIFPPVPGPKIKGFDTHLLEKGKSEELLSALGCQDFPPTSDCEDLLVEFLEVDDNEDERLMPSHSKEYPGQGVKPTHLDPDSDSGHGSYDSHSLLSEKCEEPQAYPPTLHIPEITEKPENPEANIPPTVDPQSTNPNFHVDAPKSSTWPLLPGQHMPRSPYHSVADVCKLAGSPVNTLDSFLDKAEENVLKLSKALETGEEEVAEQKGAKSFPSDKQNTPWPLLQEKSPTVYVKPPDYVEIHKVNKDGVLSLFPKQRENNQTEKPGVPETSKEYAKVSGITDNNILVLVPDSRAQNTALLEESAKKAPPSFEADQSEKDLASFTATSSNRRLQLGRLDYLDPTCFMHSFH

human PRLR on cells [11] = molecular target: T1, human PRLR on cells; experiment: FACS T47D 10 ug/mL

B1: Ab29 (antibody, human IgG1, kappa)
heavy: not shown
light: DIVMTQTPLSLSVTPGQPASISCRSSQRLVHSNGNTYLHWYLQKPGQSPQLLIYKVSNRFSGVPDRFSGSGSGTDFTLKISRVEAEDVGVYYCSQSTHVPWTFGGGTKVEIKRTVAAPSVFIFPPSDEQLKSGTASVVCLLNNFYPREAKVQWKVDNALQSGNSQESVTEQDSKDSTYSLSSTLTLSKADYEKHKVYACEVTHQGLSSPVTKSFNRGEC
notes: humanized from Ab5; G1; also called Ab HC.1a and Ab2 LC.1
Baf3-cyPRLR proliferation IC50 [1]: 0.23 µg/mL | Baf3-hPRLR proliferation IC50 (human PRLR on cells [2]): 0.15 µg/mL | Kd [3]: 53 nM | koff [3]: 0.00634 s⁻¹ | kon [3]: 120000 M⁻¹ s⁻¹ | Kd [4]: 1.79 nM | koff [4]: 0.00056 s⁻¹ | kon [4]: 313000 M⁻¹ s⁻¹ | Kd [5]: 2.24 nM | koff [5]: 0.000675 s⁻¹ | kon [5]: 301000 M⁻¹ s⁻¹ | EC50 [6]: 0.689 nM | EC50 [7]: 0.269 nM | EC50 [8]: 0.153 nM | EC50 [9]: 0.238 nM

B2: Ab31 (antibody, human IgG1, kappa)
heavy: not shown
light: DVVMTQTPLSLSVTPGQPASISCRSSQRLVHSNGNTYLHWYLQKPGQSPQLLIYKVSNRFSGVPDRFSGSGSGTDFTLKISRVEAEDVGVYYCSQSTHVPWTFGGGTKVEIKRTVAAPSVFIFPPSDEQLKSGTASVVCLLNNFYPREAKVQWKVDNALQSGNSQESVTEQDSKDSTYSLSSTLTLSKADYEKHKVYACEVTHQGLSSPVTKSFNRGEC
notes: humanized from Ab5; G1; also called Ab2 HC.1a and Ab2 LC.1b
Baf3-cyPRLR proliferation IC50 [1]: 0.39 µg/mL | Baf3-hPRLR proliferation IC50 (human PRLR on cells [2]): 0.17 µg/mL | Kd [3]: 55.7 nM | koff [3]: 0.00682 s⁻¹ | kon [3]: 122000 M⁻¹ s⁻¹ | Kd [4]: 1.67 nM | koff [4]: 0.000537 s⁻¹ | kon [4]: 322000 M⁻¹ s⁻¹ | Kd [5]: 2.08 nM | koff [5]: 0.000643 s⁻¹ | kon [5]: 310000 M⁻¹ s⁻¹ | EC50 [6]: 0.718 nM | EC50 [7]: 0.453 nM | EC50 [8]: 0.256 nM | EC50 [9]: 0.333 nM

B3: chAb12 (antibody, human IgG1, kappa, V domains shown)
VH: DVQLQESGPGLVKPSQSLSLTCTVTGYSITSDYAWNWIRQFPGNKLEWMGYIGYSGRTSFNPSLKSRISITRDTSKNQFFLQLNSVTTEDTATYYCARGGFAMDYWGQGTSVTVSS
VL: QIVLTQSPGIMSASPGEKVTMTCSASSSVTYMYWYQQKPRSSPKPWIYLTSNLASGVPARFSGSGSGTSYSLTISSMEAEDGATYYCQQWSSTPPLTFGGGTKLELNT
Baf3-cyPRLR proliferation IC50 [1]: > 10 µg/mL | Nb2-11 proliferation IC50 [10]: 41.4 µg/mL | Baf3-hPRLR proliferation IC50 (human PRLR on cells [2]): 10.7 µg/mL

B4: Ab8 (antibody, V domains shown)
VH: EVQLQQSGPELVKPGASVKISCKASGYTFTDYNIHWVKQSHGKSLEWIGYIYPNNDGTGYNQKFKSKATLTVDNSSSTAYMEVRSLTSEDSAVYYCARGDGNYVGDMDYWGQGTSVTVSS
VL: DIQMTQSPASLSASVGETVTITCRASENIYSYLAWYQQKQGKPPQLLVYNAKTLAEGVPSRFSGGGSGTQFSLKINSLQPEDFGSYYCQHHYATPFTFGSGTKLEIK
notes: murine monoclonal, isotype G2b; also called murine Ab8
Baf3-cyPRLR proliferation IC50 [1]: 1.64 µg/mL | Baf3-hPRLR proliferation IC50 (human PRLR on cells [2]): 1.15 µg/mL | T47D pPRLR ELISA IC50 (human PRLR on cells [2]): 0.219 µg/mL | Kd [3]: 259 nM | koff [3]: 0.0466 s⁻¹ | kon [3]: 180000 M⁻¹ s⁻¹ | Kd [4]: 0.153 nM | koff [4]: 8.19e-05 s⁻¹ | kon [4]: 536000 M⁻¹ s⁻¹ | Kd [5]: 2.2 nM | koff [5]: 0.00116 s⁻¹ | kon [5]: 526000 M⁻¹ s⁻¹ | FACS GeoMean-neg (human PRLR on cells [11]): 1530 | EC50 [6]: 0.205 nM | EC50 [7]: 0.098 nM | EC50 [9]: 0.342 nM
